± gives the standard error.
B1: library; numbered along this chain (parent)
chain: MATDAALRRLLRLHRTEIAVAVDSAFPLLHALADHDVVPEDKFQETLHLKEKEGCPQAFHALLSWLLTQDSTAILDFWRVLFKDYNLERYGRLQPILDSFPKDVDLSQPRKGRKPPAVPKALVPPPRLPTKRKASEEARAAAPAALTPRGTASPGSQLKAKPPKKPESSAEQQRLPLGNGIQTMSASVQRAVAMSSGDVPGARGAVEGILIQQVFESGGSKKCIQVGGEFYTPSKFEDSGSGKNKARSSSGPKPLVRAKGAQGAAPGGGEARLGQQGSVPAPLALPSDPQLHQKNEDECAVCRDGGELICCDGCPRAFHLACLSPPLREIPSGTWRCSSCLQATVQEVQPRAEEPRPQEPPVETPLPPGLRSAGEEVRGPPGEPLAGMDTTLVYKHLPAPPSAAPLPGLDSSALHPLLCVGPEGQQNLAPGARCGVCGDGTDVLRCTHCAAAFHWRCHFPAGTSRPGTGLRCRSCSGDVTPAPVEGVLAPSPARLAPGPAKDDTASHEPALHRDDLESLLSEHTFDGILQWAIQSMARPAAPFPS

Variants of: B1
Test: AIRE transcriptional activation functional score (insulin promoter-GFP; nonsense median 0, synonymous median 1) (normalised score); higher = higher AIRE activity (more reporter activation)
Conditions: with insulin promoter-GFP reporter in HEK293
Description: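 Deep mutational scan of full-length human AIRE (codon-optimized cDNA, DT-POPCode NNN libraries over three regions) integrated at a Bxb1 landing pad in HEK293 cells carrying an insulin core promoter-GFP reporter at a Flp-In site. Cells were sorted for the top 10% GFP about 14 days after transfection. Variant frequency log-ratios (select vs non-select, TileSeq) were rescaled so that the nonsense median is 0 and the synonymous median is 1, then averaged over biological replicates.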

AIRE transcriptional activation functional score of substitutions, site by site:
Q213: A 0.437 ± 0.074, I -0.822 ± 0.11, L 0.173 ± 0.27, G 0.977 ± 0.42, F -0.348 ± 0.053, K 1.02 ± 0.019, C 0.354 ± 0.19, E 0.718 ± 0.36, M -0.306 ± 0.13, H 1.15 ± 0.16
I211: F 0.181 ± 0.26, A -0.0822 ± 0.079, C 0.481 ± 0.047, D 0.837 ± 0.1, P -0.156 ± 0.096, S 0.773 ± 0.41, K 0.0368 ± 0.087, M 0.504 ± 0.89, L 0.428 ± 0.43, V 1.15 ± 0.18, W 0.83 ± 0.065, G 0.694 ± 0.11, Y 1.04 ± 0.15, R 0.0828 ± 0.12, E -0.399 ± 0.12
A205: W -0.461 ± 0.063, N 0.648 ± 0.55, H 1.58 ± 0.18, T 1.19 ± 0.24, E 0.647 ± 0.071, C 1 ± 0.082, F 0.213 ± 0.12, M -0.0564 ± 0.17, I -0.0126 ± 0.15, G 0.764 ± 0.2, R 0.318 ± 0.23, P 0.728 ± 0.16, S 1.09 ± 0.23, Q 0.529 ± 0.048, D 0.746 ± 0.27, V 0.34 ± 0.11, K 1.17 ± 0.11, Y 0.153 ± 0.56, L 0.428 ± 0.34
G204: E 0.847 ± 0.05, D 0.621 ± 0.36, K 0.976 ± 0.28, I 0.113 ± 0.17, V 0.123 ± 0.41, Q 0.897 ± 0.17, R 1.32 ± 0.17, W 0.133 ± 0.075, Y 0.0127 ± 0.5, L 0.339 ± 0.34, T 1 ± 0.53, S 0.807 ± 0.19, C 0.575 ± 0.088, P 1.08 ± 0.32, F -0.0648 ± 0.27, A 1.42 ± 0.21, H 1.43 ± 0.35, N 0.413 ± 0.31
I209: N 0.657 ± 0.3, C -0.0153 ± 0.21, R 0.917 ± 0.066, F 0.905 ± 0.16, Y 0.98 ± 0.43, L 0.758 ± 0.24, W 0.784 ± 0.11, D 0.64 ± 0.12, S 0.203 ± 0.18, K 0.159 ± 0.16, T 0.1 ± 0.39, V 0.66 ± 0.12, G 0.579 ± 0.18, E 0.5 ± 0.23, P 0.35 ± 0.05, A 0.165 ± 0.097, M 0.79 ± 0.098
V206: T 0.68 ± 0.2, L 1.1 ± 0.28, I 1.26 ± 0.28, M 0.51 ± 0.084, Q 0.0809 ± 0.14, D 0.39 ± 0.25, P 0.762 ± 0.22, F 0.751 ± 0.04, N 0.529 ± 0.24, A 0.817 ± 0.31, K 0.691 ± 0.28, E 0.273 ± 0.073, W 0.352 ± 0.03, S 0.691 ± 0.27, C 0.542 ± 0.22, R 0.478 ± 0.33, G 0.631 ± 0.19, H 0.927 ± 0.24, Y 0.936 ± 0.25
G208: Q 1.23 ± 0.12, W 0.199 ± 0.079, T 0.433 ± 0.44, R 0.0966 ± 0.19, M 0.171 ± 0.1, I -0.141 ± 0.15, K 0.899 ± 0.23, C 0.43 ± 0.077, D 0.296 ± 0.12, V 0.173 ± 0.17, L 0.332 ± 0.35, A 0.173 ± 0.2, S 0.651 ± 0.2, Y -0.0457 ± 0.088, F -0.178 ± 0.25, E 0.502 ± 0.1, N 0.00613 ± 0.11, H -0.0252 ± 0.11, P 0.201 ± 0.22
L210: W 0.57 ± 0.062, R 0.504 ± 0.38, P 0.65 ± 0.069, M 0.6 ± 0.11, V 0.768 ± 0.24, C 0.0167 ± 0.071, H 0.71 ± 0.062, I 0.93 ± 0.09, A 0.581 ± 0.49, E -0.0363 ± 0.075, S 0.327 ± 0.13, Y 0.854 ± 1.2, F 1.01 ± 0.14, Q 0.0497 ± 0.33, G 0.615 ± 0.35
E207: L 0.143 ± 0.19, Y 0.0192 ± 0.34, R 0.167 ± 0.16, H 0.756 ± 0.28, W -0.268 ± 0.039, C 0.532 ± 0.32, S 0.372 ± 0.32, A -0.0187 ± 0.22, T 0.3 ± 0.44, Q 0.672 ± 0.052, P 0.476 ± 0.2, K 0.169 ± 0.094, I 0.19 ± 0.4, F 0.67 ± 0.11, V -0.0618 ± 0.09, D 0.788 ± 0.12, M -0.394 ± 0.12, N 0.371 ± 0.19, G 1.11 ± 0.21
Q212: S 1.14 ± 0.32, K 1.04 ± 0.026, G 0.371 ± 0.2, P 0.358 ± 0.29, C 1.01 ± 0.12, D -0.139 ± 0.13, I -0.568 ± 0.044, L -0.00712 ± 0.26, V -0.424 ± 0.34, F 0.392 ± 0.063, T 0.447 ± 0.065, A -0.0175 ± 0.1, R 1.09 ± 0.32, W -0.0246 ± 0.17, E 0.507 ± 0.2, H 1.68 ± 0.18
